According to article PMC10847046:

Target: M66/StcE (Yersinia entomophaga (endogenous in the ΔLC derivative of MH96))
Experiment: cryo-EM structure

M66/StcE (enzyme)
stoichiometry N: 4
